The source of these data is US12594347B2, “Nanoparticulate drug delivery systems” (Duke University, priority 2018, dated 2026).

Where two headings read alike, the source gives them in different places.

The nature of one data set: Canine pharmacokinetics. The source says: Canine pharmacokinetics and toxicities. […] All procedures and protocols involving care, handling, and dosing for this study were reviewed and approved by the Institutional Animal Care and Use Committee (IACUC) at North Carolina State University College of Veterinary Medicine, which is an AAALAC-accredited facility. The animals' health status were monitored daily by the animal technicians and veterinary staff, paying particular attention for signs of gastrointestinal toxicities including vomiting, diarrhea, lethargy, and inappetence. If noted, supportive care was provided. […] 2 mL blood samples were drawn from jugular vein at 40 s, 15 and 30 min, 2, 4, 8, 24, 48, and 72 h after injection, diluted into 400 μL heparinized PBS (1000 UmL^−1). Sample processing and analysis were performed as with murine pharmacokinetics studies.

Data set [1] can be described thus: Biodistribution in C26 tumor-bearing mice. The format is in vivo, Balb/C mice. To be noted: mouse, in vivo. The method, then:
Cell culture and tumor inoculation.
Biodistribution. […] At 2 and 24 h after injection, tissues (tumor, muscle, heart, lung, liver, spleen and kidney) were removed, weighed and suspended in 1.0 mL acidified isopropanol (75 mM HCl, 10% water, 90% isopropanol). Tissues were then homogenized using 2 mm diameter zirconia beads and a MiniBeadbeater-1TM (Biospec; Bartlesville, OK) for 2 min at 5,000 beats per minute and were incubated overnight at 4° C. in the dark. The isopropanol extracts were then vortexed, and centrifuged (14,000 RPM, 10 min, 4° C.) and 125 uL of the supernatant was loaded onto a black 96-well plate (BD Biosciences) in duplicate. […] To correct for background tissue fluorescence, tissues were removed from three untreated control mice and were processed similarly. For each tissue, a background (counts per mg tissue) curve was created using 2-fold dilutions of the processed tissues in acidified isopropanol.

For data set [2], the system named is C26 murine colon adenocarcinoma cells.
Protocol: C26 murine colon adenocarcinoma cells were seeded (5000 cells/well) in a 96-well plate. After 24 h, cells were treated in triplicate with 3-fold serial dilutions of drugs beginning with 100 uM. After 72 h incubation, 20 μL of CellTiter 96 AQueous™ (Promega; Madison, WI) 3-(4,5-dimethlthiazol-2-yl)-5-(3-carboxymethoxphenyl)-2-(4-sulfophenyl)-2H-tetrazolium (MTS) reagent was added to each well followed by 3 h incubation at 37° C. The absorbance at 490 nm was determined using a Victor3™ microplate reader (Perkin Elmer; Waltham, MA). For each plate, blank wells (with no cells) were defined as 0% viability and wells treated with PBS were defined as 100% viability. The background absorbance at 490 nm was corrected by subtracting the average absorbance of the blank wells from each well. The percent viability was defined as the absorbance of each well normalized to the absorbance of wells treated with PBS. Inhibitory concentration (IC 50) values were calculated using a four-parameter logistic fit in the Prism program (GraphPad Software, San Diego, CA, USA).
Data set [3] concerns MDA-MB-231 human breast cancer cells. Put plainly: In vitro cytotoxicity, MTS assay, MDA-MB-231 cells. In kind it is cell-based. To be noted: 72 h incubation, read-out: half-maximal inhibitory concentration (IC50). The method, then:
In vitro cytotoxicity of the ABDN-CP-PTX versus that of naked CP-PTX and free PTX was determined using the […] MTS assay. […] The MTS assay was repeated twice to ensure validity of results.
In general terms: Tetrazolium dyes change colour on reduction, which living cells bring about.

The target of data set [4] is T1, human serum albumin (HSA) (Homo sapiens, UniProt P02768). Put plainly: Isothermal titration calorimetry (VP-ITC) of polypeptide carriers with human albumin. To be noted: PBS pH 7.4, 37° C. In kind it is binding. Here is the method: (§1) Interaction with albumin. Interaction of CP monomers and micelles with human and mouse albumin was analyzed by isothermal titration calorimetry (ITC).

Data set [5] deals with T2, mouse serum albumin (MSA) (Mus musculus, UniProt P07724). The data set can be described thus: Isothermal titration calorimetry (VP-ITC) of polypeptide carriers and DOX micelles with mouse albumin. In kind it is binding. The following applies: PBS pH 7.4, 37° C. Here is the method:
as §1
In general terms: In ITC the heat of successive injections is recorded.

For data set [6], the target named is T1, human serum albumin (HSA). The data set can be described thus: Isothermal titration calorimetry (Nano ITC) for PTX conjugates with human albumin. The format is binding. Here is the method:
(§2) For PTX conjugates, ITC was conducted using a Nano ITC system (TA Instruments, Utah, USA). Aliquots of 10 uL of 500 uM albumin in PBS were titrated via a 250 μl syringe into CP-PTX at 50 uM concentration, stirring at 300 rpm at 37° C. For background correction, PBS (in the cell) was titrated with albumin (in the syringe) at the same concentrations and conditions. Background was subtracted from the final curves and the binding and thermodynamic parameters binding constant (KD), number of binding sites (n), and enthalpy (ΔH)—were computed by non-linear fitting to an independent-binding site model using TA Instruments NanoAnalyze software.

Data set [7] deals with T2, mouse serum albumin (MSA). The data set can be described thus: Isothermal titration calorimetry (Nano ITC) for PTX conjugates with mouse albumin. In kind it is binding. Here is the method: as §2
Data set [8] can be described thus: Pharmacokinetics of Alexa488-labeled ABD-ELP and ELP monomers in mice. The following applies: tail vein, Balb/C mice, two-compartment model. The format is in vivo. Here is the method:
A single cysteine was added to the C-terminus of polypeptides and was reacted with Alexa 488-maleimide (Life Technologies, Carlsbad, CA, USA). 50 uL Alexa 488-maleimide at 27.75 uM in DMSO was added to the polypeptide solution in the reaction (250 uM) and was allowed to stir for 3 hr at room temperature in the dark. Unbound Alexa488 was then removed by Amicon ultra-15 centrifugal filter units (MWCO 10 kDa, Millipore) and in PBS. Alexa488 concentration and conjugation efficiency was then determined.
125 uL of the supernatant was loaded onto a black 96-well plate (BD Biosciences) in duplicate. Free Alexa488-maleimide solutions at various known concentrations were prepared in heparinized PBS and were loaded onto the plate as standards. Alexa488 fluorescence was measured on a Wallac Victor3 TM microplate reader (Perkin Elmer; Waltham, MA).

Data set [9] is described as follows: Thermal turbidimetry (transition temperature). In kind it is physicochemical. Here is the method: Thermal Turbidimetry. Thermal profiles of CPs and CP conjugates were determined by measuring the transition temperature (Tt) over a range of concentrations (5, 10, 25, 50, and 100 uM) in PBS, FBS, and MS using a Cary UV-visible spectrophotometer equipped with temperature controller (Agilent Technologies, CA, USA). […] The transition temperature was defined as the maximum first derivative of the optical density.

Data set [10] is described as follows: Dynamic and static light scattering. The format is physicochemical. The following applies: for % Intensity / Polydispersity / Rh: DLS. The method, then: Light Scattering. Dynamic and static light scattering measurements were performed using an ALV/CGS-3 goniometer system (Germany). […] To study the effect of albumin binding on micellar self-assembly, mouse albumin was added to the samples at 1:1 albumin-CP molar ratio in PBS. Measurements were obtained at 25° C. and 37° C. for angles between 30-150° at 5° increments with each angle consisting of 3 runs and 10 s each at each run. Hydrodynamic radius (Rh) was determined by dynamic light scattering. The radius of gyration (Rg) and the average molecular weight of the particle (MW) were calculated from the slope and intercept of a partial Zimm plot, respectively, using ALV/Dynamic and Static FIT and PLOT software and according. The micelle aggregation number Nagg, or the number of polypeptide chains per nanoparticle, was calculated by dividing the micelle molecular weight by the molecular weight of the polypeptide monomer.
Size and morphology of CP conjugated micelles. The radius and the aggregation number of the self-assembled micelles were determined, in the presence and absence of albumin, by dynamic and static light scattering at 37° C. using an ALV/CGS-3 goniometer system (Germany). Freeze fracture electron microscopy was performed to visualize the micelles and estimate their radius and morphology.

[11] abbreviates: dogs, cephalic vein, 27 DOX Equiv/m^−2 BSA or 0.9 mg DOX Equiv/kg BW.

T2 sequence (P07724 25-608): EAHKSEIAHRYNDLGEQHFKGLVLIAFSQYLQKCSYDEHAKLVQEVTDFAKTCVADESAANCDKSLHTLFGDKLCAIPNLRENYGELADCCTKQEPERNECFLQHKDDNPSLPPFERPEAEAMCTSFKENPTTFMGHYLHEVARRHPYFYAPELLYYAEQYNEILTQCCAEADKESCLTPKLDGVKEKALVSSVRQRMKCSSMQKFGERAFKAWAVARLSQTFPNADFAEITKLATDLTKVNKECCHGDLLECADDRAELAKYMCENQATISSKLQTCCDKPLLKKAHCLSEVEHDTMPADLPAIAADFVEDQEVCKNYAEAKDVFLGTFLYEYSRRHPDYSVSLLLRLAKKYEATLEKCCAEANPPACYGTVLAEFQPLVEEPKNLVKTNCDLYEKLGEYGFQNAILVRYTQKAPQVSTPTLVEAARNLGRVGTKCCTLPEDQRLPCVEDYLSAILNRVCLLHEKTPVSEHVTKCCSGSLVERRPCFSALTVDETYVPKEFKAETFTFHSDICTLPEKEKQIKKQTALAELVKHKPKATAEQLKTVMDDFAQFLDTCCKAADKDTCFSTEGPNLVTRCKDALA

Consider `COc1cccc2c1C(=O)c1c(O)c3c(c(O)c1C2=O)C[C@@](O)(C(=O)CO)C[C@@H]3O[C@H]1C[C@H](N)[C@H](O)[C@H](C)O1` [DOX, doxorubicin, reference compound], for which, in the data set “Canine pharmacokinetics” (dog, in vivo), the “Apparent distribution volume VD” value came out at 3.85 ± 0.26 mL/g and the “Plasma clearance CL” value is 0.7875 ± 0.0951 mL/h/g. Besides, in “Canine pharmacokinetics” (setting [11]), the “Distribution half-life β t1/2” value came to 3.6 ± 0.5 min, the “Elimination rate constant kg” value amounted to 0.96 ± 0.13 h⁻¹ and the “Plasma to tissue rate constant kpt” value is 8.51 ± 1.20 h⁻¹. Further, the “Elimination half-life α t1/2” value in “Canine pharmacokinetics” (dogs, cephalic vein, 27 DOX Equiv/m^−2 BSA or 0.9 mg DOX Equiv/kg BW, plasma DOX) came to 2.9 ± 0.8 h. Besides, in data set [1], the “accumulation in the spleen (in words)” value was “lower accumulation in the spleen than CP-DOX micelles”; the “distribution to the heart, lung, kidneys, and muscle (in words)” value is listed as “greater extent”. In [2], this molecule registered an IC50 of 90 nM.
As to `CC(=O)O[C@H]1C(=O)[C@@]2(C)[C@H]([C@H](OC(=O)c3ccccc3)[C@]3(O)C[C@H](OC(=O)[C@H](O)[C@@H](NC(=O)c4ccccc4)c4ccccc4)C(C)=C1C3(C)C)[C@]1(OC(C)=O)CO[C@@H]1C[C@@H]2O` [free PTX, paclitaxel, reference compound], the IC50 in [3] (MDA-MB-231, printed MDA-MB-213 human breast cancer cells) is 9.8 nM.

B1: ABDN-ELP: ELP scaffold with albumin binding domain ABDN (SEQ ID NO:6) fused to the N-terminus and C-terminal cysteine sequence (protein)
chain: LAEAKVLANRELDKYGVSDYYKNLINNAKTVEGVKALIDEILAALPVPGAGVPGAGVPGAGVPGAGVPGAGVPGAGVPGAGVPGAGVPGAGVPGAGVPGAGVPGAGVPGAGVPGAGVPGAGVPGAGVPGAGVPGAGVPGAGVPGAGVPGAGVPGAGVPGAGVPGAGVPGAGVPGAGVPGAGVPGAGVPGAGVPGAGVPGAGVPGAGVPGAGVPGAGVPGAGVPGAGVPGAGVPGAGVPGAGVPGAGVPGAGVPGAGVPGAGVPGAGVPGAGVPGAGVPGAGVPGAGVPGAGVPGAGVPGAGVPGAGVPGAGVPGAGVPGAGVPGAGVPGAGVPGAGVPGAGVPGAGVPGAGVPGAGVPGAGVPGAGVPGAGVPGAGVPGAGVPGAGVPGAGVPGAGVPGAGVPGAGVPGAGVPGAGVPGAGVPGAGVPGAGVPGAGVPGAGVPGAGVPGAGVPGAGVPGAGVPGAGVPGAGVPGAGVPGAGVPGAGVPGAGVPGAGVPGAGVPGAGVPGAGVPGAGVPGAGVPGAGVPGAGVPGAGVPGAGVPGAGVPGAGVPGAGVPGAGVPGAGVPGAGVPGAGVPGAGVPGAGVPGAGVPGAGVPGAGVPGAGVPGAGVPGAGVPGAGVPGAGVPGAGVPGAGVPGAGVPGAGVPGAGVPGAGVPGAGVPGAGVPGAGVPGAGVPGAGVPGAGVPGAGVPGAGVPGAGVPGAGVPGAGVPGAGVPGAGVPGAGVPGAGVPGAGVPGAGVPGAGVPGAGVPGAGVPGAGVPGAGVPGAGVPGAGCGGCGGCGGCGGCGGCGGCGGCGG
B1: in [4], the “binding stoichiometry N” value is 1.04±0.00. The “binding stoichiometry N” value in data set [5] came out at 1.12±0.00. Also, the “n (number of binding sites)” value in [6] (listed as ABD-CP) amounted to 0.95. Further, in [7] (listed as ABD-CP), the “n (number of binding sites)” value was 1.05. Moreover, in [8], the “Apparent distribution volume VD” value is 0.27 ± 0.01 mL/g, the “Area under the curve AUC” value turned out to be 80.2 ± 1.9 µM·h, the “Distribution half-life β t1/2” value worked out at 1.24 ± 0.295 h and the “Elimination half-life α t1/2” value was determined as 16.8 ± 0.5 h. For the same molecule, in data set [8], the “Elimination rate constant kg” value was found to be 0.08 ± 0.00 h⁻¹, the “Plasma clearance CL” value came out at 0.012 ± 0.000 mL/h/g, the “Plasma to tissue rate constant kpt” value is 0.21 ± 0.06 h⁻¹ and the “Tissue to plasma rate constant ktp” value turned out to be 0.31 ± 0.07 h⁻¹. For the same molecule, the “Elimination half-life α t1/2” value in data set [8] (listed as ABDN-CP) worked out at 17 h. The transition temperature in data set [9] (100 μM concentration in PBS) was 57 °C. In [9] (ABDN-CP fusions for conjugation with Paclitaxel), the Tt is 48 °C.

B2: ABD-CP-PTX (conjugate)
chain: LAEAKVLANRELDKYGVSDYYKNLINNAKTVEGVKALIDEILAALPVPGAGVPGAGVPGAGVPGAGVPGAGVPGAGVPGAGVPGAGVPGAGVPGAGVPGAGVPGAGVPGAGVPGAGVPGAGVPGAGVPGAGVPGAGVPGAGVPGAGVPGAGVPGAGVPGAGVPGAGVPGAGVPGAGVPGAGVPGAGVPGAGVPGAGVPGAGVPGAGVPGAGVPGAGVPGAGVPGAGVPGAGVPGAGVPGAGVPGAGVPGAGVPGAGVPGAGVPGAGVPGAGVPGAGVPGAGVPGAGVPGAGVPGAGVPGAGVPGAGVPGAGVPGAGVPGAGVPGAGVPGAGVPGAGVPGAGVPGAGVPGAGVPGAGVPGAGVPGAGVPGAGVPGAGVPGAGVPGAGVPGAGVPGAGVPGAGVPGAGVPGAGVPGAGVPGAGVPGAGVPGAGVPGAGVPGAGVPGAGVPGAGVPGAGVPGAGVPGAGVPGAGVPGAGVPGAGVPGAGVPGAGVPGAGVPGAGVPGAGVPGAGVPGAGVPGAGVPGAGVPGAGVPGAGVPGAGVPGAGVPGAGVPGAGVPGAGVPGAGVPGAGVPGAGVPGAGVPGAGVPGAGVPGAGVPGAGVPGAGVPGAGVPGAGVPGAGVPGAGVPGAGVPGAGVPGAGVPGAGVPGAGVPGAGVPGAGVPGAGVPGAGVPGAGVPGAGVPGAGVPGAGVPGAGVPGAGVPGAGVPGAGVPGAGVPGAGVPGAGVPGAGVPGAGVPGAGVPGAGVPGAGVPGAGVPGAGCGGCGGCGGCGGCGGCGGCGGCGG
Take B2: the “n (number of binding sites)” value in data set [6] is reported as 0.92. The “n (number of binding sites)” value in data set [7] worked out at 0.95. In data set [3] (printed MDA-MB-213 human breast cancer cells), the IC50 came out at 10.9 nM. In [10] (Concentration 20 μM), the “% Intensity” value is 95.4%, the Polydispersity stood at 24.6% and the Rh worked out at 39.6 ± 2.2 nm. For the same molecule, in data set [10] (Concentration 40 μM), the “% Intensity” value worked out at 96.6%, the Polydispersity worked out at 26.6% and the Rh amounted to 44.1 ± 4.7 nm. In data set [10] (SLS, 20 μM concentration), this molecule showed a Nagg of 64.5 and an RG of 42.83 nm. For the same molecule, the “aggregation (in words)” value in data set [10] (body temperature (37° C.)) is listed as “no aggregates”.
